In article PMC10216364, “Structural Insight into the Mechanism of σ32-Mediated Transcription Initiation of Bacterial RNA Polymerase” (Biomolecules, 2023):

Columns and labels:
[1] = molecular target: RNA polymerase core enzyme;chimera sigma32-28 (E. coli;E. coli) (UniProt P0A7Z4+P0A8V2+P0A8T7+P0A800+P0AGB3); experiment: fluorescence polarization; settings: apparent Kd; FP: 10 mM Tris-HCl pH 7.7, 100 mM NaCl, 1 mM DTT, 1% glycerol, 0.025% Tween-20, 5 nM DNA, 10-320 nM holoenzyme, room temperature, 5 min; stopped-flow: 10 mM …
[2] = molecular target: RNA polymerase core enzyme;chimera sigma32-38 (E. coli;E. coli) (UniProt P0A7Z4+P0A8V2+P0A8T7+P0A800+P0AGB3); experiment: fluorescence polarization; settings: apparent Kd; FP: 10 mM Tris-HCl pH 7.7, 100 mM NaCl, 1 mM DTT, 1% glycerol, 0.025% Tween-20, 5 nM DNA, 10-320 nM holoenzyme, room temperature, 5 min; stopped-flow: 10 mM …
[3] = molecular target: RNA polymerase core enzyme;sigma32 L253A (E. coli;E. coli, UniProt P0A7Z4;P0A8V2;P0A8T7;P0A800;P0AGB3 1-329;1-1342;1-1407;1-91;1-284, |L253A); experiment: fluorescence polarization; apparent Kd; FP: 10 mM Tris-HCl pH 7.7, 100 mM NaCl, 1 mM DTT, 1% glycerol, 0.025% Tween-20, 5 nM DNA, 10-320 nM holoenzyme, room temperature, 5 min; stopped-flow: 10 mM Tris-HCl pH 7.7, 20 mM NaCl, 10 mM MgCl2, 1 mM DTT; settings: protein: recombinant;recombinant; tags: ;His tag (pET28a, Ni-NTA); chain copies: 2;1;1;1;1; blunt
[4] = molecular target: RNA polymerase core enzyme;sigma32 (RpoH) wild type (E. coli;E. coli, UniProt P0A7Z4;P0A8V2;P0A8T7;P0A800;P0AGB3 1-329;1-1342;1-1407;1-91;1-284, |); experiment: as above; settings: protein: recombinant;recombinant, tags: ;His tag (pET28a, Ni-NTA), chain copies: 2;1;1;1;1
[5] = molecular target: RNA polymerase core enzyme;sigma32 R266A (E. coli;E. coli, UniProt P0A7Z4;P0A8V2;P0A8T7;P0A800;P0AGB3 1-329;1-1342;1-1407;1-91;1-284, |R266A); experiment: as above; settings: protein: recombinant;recombinant; tags: ;His tag (pET28a, Ni-NTA); chain copies: 2;1;1;1;1; blunt
[6] = molecular target: RNA polymerase core enzyme;sigma32 E265A (E. coli;E. coli, UniProt P0A7Z4;P0A8V2;P0A8T7;P0A800;P0AGB3 1-329;1-1342;1-1407;1-91;1-284, |E265A); experiment: as above; settings: protein: recombinant;recombinant; tags: ;His tag (pET28a, Ni-NTA); chain copies: 2;1;1;1;1; blunt
[7] = molecular target: RNA polymerase core enzyme;sigma32 R268A (E. coli;E. coli, UniProt P0A7Z4;P0A8V2;P0A8T7;P0A800;P0AGB3 1-329;1-1342;1-1407;1-91;1-284, |R268A); experiment: as above; settings: protein: recombinant;recombinant; tags: ;His tag (pET28a, Ni-NTA); chain copies: 2;1;1;1;1; blunt
[8] = molecular target: T1, β′ subunit of E. coli RNAP (E. coli, UniProt P0A8T7 1-1407); experiment: cryo-EM structure; σ32-RPo: RNAP core enzyme, σ32 and dnaKp1 promoter scaffold mixed at 1:4:1.2 molar ratios, 4 °C overnight, purified on Superdex 200; 20 mM Tris-HCl pH 8.0, 0.1 M NaCl, 1% glycerol, 1 mM DTT; promoter DNA present; settings: both partners purified
T1 construct: RNA polymerase subunit beta' (RpoC), E. coli; stood in the assay as a subunit of the RNAP core enzyme; A subunit of m2; also called RNAP-β′; RpoC; source: E. coli BL21(DE3), co-expressed from pET28a-rpoA-rpoB-rpoC-rpoZ, purified as part of the RNAP core enzyme

[9] = molecular target: T2, β subunit of E. coli RNAP (E. coli, UniProt P0A8V2 2-1342); experiment: as above; settings: both partners purified
T2 construct: RNA polymerase subunit beta (RpoB), E. coli; stood in the assay as a subunit of the RNAP core enzyme; A subunit of m2; also called RpoB; bears the β-flap tip helix (βFTH); source: E. coli BL21(DE3), co-expressed from pET28a-rpoA-rpoB-rpoC-rpoZ, purified as part of the RNAP core enzyme

CCTTGAAGACGTGGTTTACGACCCCATTTAGTAG / GGGGTCGTAAACCACGTCTTCAAGG [long promoter DNA, -35 to -10 bubble]
Kd [1]: 9.22 nM | Kd [2]: 8.34 nM

B1: short -35 element DNA (dsDNA)
DNA 1: CCTTGAAGACGTGG
DNA 2: CCACGTCTTCAAGG
Kd [3]: 38.8 nM | Kd ([4]; blunt): 28.4 nM | Kd [5]: 54.9 nM | Kd [6]: 45.9 nM | Kd [7]: 46.7 nM

B2: long promoter DNA, -35 to -10 bubble (mixed)
DNA 1: CCTTGAAGACGTGGTTTACGACCCCATTTAGTAG
DNA 2: GGGGTCGTAAACCACGTCTTCAAGG
Kd ([4]; 25 bp duplex, 3' overhang 9 nt on S5 (fork-junction type)): 14.9 nM

B3: E. coli σ^32 (natural protein)
chain: MTDKMQSLALAPVGNLDSYIRAANAWPMLSADEERALAEKLHYHGDLEAAKTLILSHLRFVVHIARNYAGYGLPQADLIQEGNIGLMKAVRRFNPEVGVRLVSFAVHWIKAEIHEYVLRNWRIVKVATTKAQRKLFFNLRKTKQRLGWFNQDEVEMVARELGVTSKDVREMESRMAAQDMTFDLSSDDDSDSQPMAPVLYLQDKSSNFADGIEDDNWEEQAANRLTDAMQGLDERSQDIIRARWLDEDNKSTLQELADRYGVSAERVRQLEKNAMKKLRAAIEA
notes: RNA polymerase sigma factor σ32 (RpoH), E. coli; the N-terminus was not modelled in the structure; the tag and its end are not described; also called sigma 32; RpoH; source: E. coli BL21(DE3), plasmid pET28a-rpoH, purified (Ni-NTA, HiTrap Heparin)
binding result [8]: binds | binding result [9]: binds
